For data set [1], the system named is CCCC(C)(CCO)SC[C@H](N)C(=O)O. Put plainly: purified protein, by the assay type. Details: DTNB thiol release, A412, continuous steady-state Michaelis-Menten kinetics of C-S lyase. The conditions noted are these: pH 7.8; 37.0 °C. The method, then: (§1) In vitro activity assays were performed using an Epoch2 (BioTek) plate reader. Reactions were measured in 96-well plate. A continuous assay, described previously[3] was used to measure 3M3SH. A 200 μL reaction contained […], variable amounts of substrate and 0.4 mM DTNB in 50 mM KPi and 200 mM NaCl, pH 7.8. […] Each reaction was incubated at 37 °C for 30 min. Release of the thiol 3M3SH was measured by reaction with DTNB to form 2-nitro-5-thiobenzoic acid (TNB) which is measured at A412 nm every minute. Background rate of DTNB decomposition was subtracted in each assay. Michaelis–Menten plots were derived from 6 to 8 substrate concentrations using Prism Version 5.01 (GraphPad) to calculate the Kcat and KM. Enzyme concentrations were assumed to be the concentration of PLP-bound enzyme with two active sites per enzyme. Velocity curves for all in vitro kinetics are shown in the supplementary information (Supplementary Information Figures S10–S12). Next, we cloned and overexpressed genes encoding a representative range of PatB-type enzymes, with two MetC proteins as controls (Fig. 2, denoted by coloured dots) and purified the proteins for biochemical analysis.

Data set [2] concerns CC(C)(CCO)SC[C@H](N)C(=O)O. Put plainly: purified protein, by the assay type. Details: DTNB thiol release, A412, continuous steady-state Michaelis-Menten kinetics of C-S lyase. The conditions noted are these: pH 7.8; 37.0 °C. As for the experimental part:
as §1

Data set [3] has as its target Staphylococcus hominis PatB (cysteine-thiol lyase, PLP-dependent C-S lyase) (Staphylococcus hominis). Put plainly: crystal structure; ShPatB at 15 mg/mL in 20 mM Tris pH 8, 50 mM NaCl; hanging drops, 4% Tacsimate pH 6, 12% PEG 3,350, room temperature; without and with 20 mM L-cycloserine.

Consider EcTnaA (Escherichia coli K-12), for which, in data set [1], the Km (as a rule, the concentration of substrate that gives half-maximal velocity) stood at 2150 µM; the kcat – broadly, the maximal rate divided by the concentration of active sites – was 0.051 s⁻¹; the catalytic efficiency (kcat/Km) (in general, the turnover number divided by the Michaelis constant) worked out at 23.7 M⁻¹ s⁻¹. Besides, in data set [2], the Km worked out at 3300 µM, the kcat is 0.0117 s⁻¹ and the kcat/Km was 3.33 M⁻¹ s⁻¹.

Regarding “Staphylococcus hominis PatB (cysteine-thiol lyase, PLP-dependent C-S lyase) (enzyme)”, in data set [3], the stoichiometry N (commonly the number of molecules, sites or subunits per partner or assembly) was 2.
